What was measured:
HER2ex. [1] = target: HER2ex. (UniProt P04626); test: SPR (Biacore X100); multi-cycle method, 0.05% Tween20-PBS; conditions: scFv
HER2ex. [2] = target: HER2ex. (UniProt P04626); test: SPR (Biacore X100); multi-cycle method, 0.005% Tween20-PBS; conditions: scFv
HER2ex. [3] = target: HER2ex. (UniProt P04626); test: SPR (Biacore X100); single cycle method, 0.05% Tween20-PBS, immobilized full-Ab

Substance	Kd (HER2ex. [1])	Kd (HER2ex. [2])	Kd (HER2ex. [3])
Trastuzumab scFv	0.0947 nM	0.256 nM	
Trastuzumab full-body Ab			3.56 nM

Source: US20170218072A1
